Data from US20050118615A1 (COMPUGEN, published 2005).

Legend:
[1] = molecular target: T1, recombinant human BMP-4 (R&D Systems) (human, UniProt P12644 293-408); assay: pull-down on Talon metal affinity resin with immobilised His-hCHL2, immunoblot with anti-BMP2/4 antibody
T1 construct: Bought reagent
T1 sequence (looked up): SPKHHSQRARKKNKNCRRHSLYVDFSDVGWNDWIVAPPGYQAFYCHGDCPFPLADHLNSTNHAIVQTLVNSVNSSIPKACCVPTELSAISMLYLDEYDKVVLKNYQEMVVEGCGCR
Text: (§1) Protein binding assays with His-tagged hCHL2 protein Culture media of COS7 cells, transfected with hCHL2 cloned in pcDNA4/His, or empty vector (see above), were collected every 24 hrs, beginning at 48 hrs after transfection for a total of 96 hrs, and concentrated 10-fold by ultrafiltration through a YM Millipore membrane under nitrogen pressure (Millipore, Bedford, Mass.) before binding of secreted His-tagged hCHL2 to BD TALONTM Metal Affinity Resin (Clontech, Palo Alto, Calif.). The resin was added to the concentrated medium, rotated for 30 min at room temperature, and then washed twice with loading buffer (50 mM NaH₂PO₄, pH 8, 300 mM NaCl, 5 mM imidazole) and resuspended in 200 μl of binding buffer (1 mM CaCl₂, 3 mM MgCl₂, 0.2% NP-40, 1 mg/ml BSA in PBS). The His-hCHL2, immobilized on the resin, was incubated with 200 ng of recombinant human BMP-2, -4, -6 or Activin A (all purchased from R&D Systems), while rotating for 1 hr at room temperature, and then washed once with binding buffer and twice with binding buffer supplemented with 0.2% Tween. […]
(§2) COS-7 cells were transfected with a pcDNA4 (Invitrogen, Carlsbad, Calif.) vector expressing His-tagged hCHL2 (coding region corresponding to variant II, SEQ ID NO:6), and the culture media were collected for 72 hrs. […] No interaction was detected with any of the other proteins tested (BMP-2, 4, or 6).

[2] = molecular target: T2, recombinant human BMP-2 (R&D Systems) (human, UniProt P12643 283-396); assay: as above
T2 construct: Bought reagent
T2 sequence (P12643 283-396 limits assumed): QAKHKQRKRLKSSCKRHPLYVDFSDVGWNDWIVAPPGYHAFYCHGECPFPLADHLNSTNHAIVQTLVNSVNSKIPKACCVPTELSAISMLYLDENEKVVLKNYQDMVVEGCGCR
Text: as §1, §2

[3] = molecular target: T3, recombinant human BMP-6 (R&D Systems) (human, UniProt P22004 382-513, limits assumed); assay: pull-down on Talon metal affinity resin with immobilised His-hCHL2, immunoblot with anti-BMP-6 antibody
T3 construct: Bought reagent
T3 sequence (looked up): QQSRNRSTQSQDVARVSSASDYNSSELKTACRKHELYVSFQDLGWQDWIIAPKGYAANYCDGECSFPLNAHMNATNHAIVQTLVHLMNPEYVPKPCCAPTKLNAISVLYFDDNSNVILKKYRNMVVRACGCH
Text: as §1, §2

Measured: binding result

B1: His-tagged hCHL2 (variant II), secreted from COS-7 cells transfected with pcDNA4/myc-His-hCHL2 (other, not shown: small tags and cut ends)
chain: RARPDMFCLFHGKRYSPGESWHPYLEPQGLMYCLRCTCSEGAHVSCYRLHCPPVHCPQPVTEPQQCCPKCVEPHTPSGLRAPPKSCQHNGTMYQHGEIFSAHELFPSRLPNQCVLCSCTEGQIYCGLTTCPEPGCPAPLPLPDSCCQACKDEASEQSDEEDRVQSLHGVRHPQDPCSSDAGRKRGPGTPAPTGLSAPLSFIPRHFIPKGAGSTTVKIVLKEKHKKACVHGGKTYSHGEVWHPAFRAFGPLPCILCTCEDGRQDCQRVTCPTEYPCRHPEKVAGKCCKICPEDKADPGHSEISSTRCPKAPGRVLVHTSVSPSPDNLRRFALEHEASDLVEIYLWKLVKDEETEAQRGEVPGPRPHSQNLPLDSDQESQEARLPERGTALPTARWPPRRSLERLPSPDPGAEGHGQSRQSDQDITKT
notes: also called His-tagged hCHL2 protein
no binding (tested: 200 ng): [1] | [2] | [3]
